Reference: PMC3367187
Read-outs that look alike come from different tables or passages of the source.

Columns and labels:
Experiment in all cases: EMSA
HuRΔH = HuRΔH (UniProt Q15717 1-326, del186-242)
HuRΔ3 = HuRΔ3 (UniProt Q15717 1-242, del243-326)
HuR (wild type) [1] = target: T1, HuR (wild type) (UniProt Q15717 1-326)
HuR (wild type) [2] = target: T1, HuR (wild type); remark: listed apart in the source

Binder | binding result (HuRΔH) | binding result (HuRΔ3) | binding result (HuR (wild type) [1]) | binding result (HuR (wild type) [2])
HBS_50_MBSp (ssRNA) RNA: GGUAUUUAUUUAUUUAUUUGUUUGUUUGUUUUAUUGCUGUACGAGAGAGUCACUGUGCUGAUGUGGACUCAACAUCUGAUGAGCAACUAUACAACCUACUACCUCAACGUUACACU | binds | binds | binds | 
ΔHBS_20_MBSp (ssRNA) RNA: GGAGGUCCAAAGAGUGAGACUGACUAUACAACCUACUACCUCAACGUUACACU |  |  |  | no binding
HBSMut_20_MBSp (ssRNA) RNA: GGUAUAUAUGUCAUGCAUACGUAUGUGCGUAUCUACUAGGUCCAAAGAGUGAGACUGACUAUACAACCUACUACCUCAACGUUACACU |  |  |  | no binding
